Tests used:
Assay type in all cases: in vivo
[1] = system: C57BL/6J female mice exposed to cigarette smoke; assay: Acute model of cigarette smoke induced lung inflammation, four-day exposure (Example 3)
Description: Lung inflammation was induced in C57BL/6J female mice (a susceptible strain) by exposure to cigarette smoke of 4 to 6 cigarette over a four-day period. Dose response activity of subcutaneous PA401 treatment at the doses of 4, 40 and 400 μg/kg administered at t=+30 min and t=+6 h from smoke exposure, on cell infiltrates on bronchoalveolar lavages was evaluated 24 h after last cigarette smoke exposure. Air exposed, and Roflumilast (5 mg/kg oral) treated animals serve as controls.

[2] = system: C57BL/6J female mice exposed to cigarette smoke; assay: Sub-chronic model of cigarette smoke induced lung inflammation, eleven-day exposure, dose frequency (Example 4)
Description: In this study lung inflammation was induced in C57BL/6J female mice by exposure to cigarette smoke of 4 to 6 cigarettes over an eleven-day period. Dose frequency activity of subcutaneous PA401 treatment at the optimal dose of 400 μg/kg, based on the study in example 3, administered at t=+30 min and t=+6 h from smoke exposure (twice a day: b.i.d.), once daily at +3 h (q.d) and every other day (q.o.d) at +3 h, on cell infiltrates on bronchoalveolar lavages was evaluated 24 h after last cigarette smoke exposure. Air exposed, and Roflumilast (5 mg/kg oral) treated animals serve as controls.

[3] = system: male Balb/c mice exposed to LPS aerosol; assay: LPS aerosol lung inflammation, intra-tracheal local delivery to the lung (Example 6)
Description: In this experiment lung inflammation was induced by the delivery of LPS by aerosol (Salmonella enterica, 3.5 mg/7 mL over 30 min) in male Balb/c mice. PA401 was administered intra-tracheally (i.t.) using a MicroSprayer (FJM-250 syringe; PennCentury), a device that allows delivery of a plume of aerosol (mass median diameter 16-22 μm) directly into the lungs. PA401 i.t. administration was performed at the doses of 100, 40, 10 and 4 μg/kg either 1 h before LPS exposure, or 1 h after the end of LPS exposure. Bronchoalveolar lavage (BAL) was performed 8 h post LPS exposure and total cell and neutrophil numbers were measured. Dexamethasone 20 μg/20 μl mouse i.t. was used as reference compound.

[4] = system: male Balb/c mice aerosolized with LPS; assay: LPS aerosol acute lung inflammation, s.c. or i.v. treatment (Example 2)
Description: A second study was performed using a slightly different model, which imply a different mouse strain and gender (male Balb/c instead of C57BL/6) a different LPS strain and serotype (Salmonella enterica instead of E. Coli) and a different LPS administration (aerosol—3.5 mg/7 mL over 30 min—instead of intranasal). PA401 doses of 4, 40 and 400 μg/kg were administered either by s.c. or i.v. route at t=−5 and t=+3 h from LPS exposure. BAL total and differential cell count were evaluated at t=8 h, a later time point compared to the previous study.
Saline aerosolized mice and mice receiving an intra tracheal administration of Dexamethasone (20 μg/20 ∥l/mouse at t=−1 h) were used as control.

[5] = system: C57BL/6J female mice exposed to cigarette smoke; assay: Sub-chronic model of cigarette smoke induced lung inflammation, eleven-day exposure, 400 vs 40 μg/kg (Example 5)
Description: In this study lung inflammation was induced in C57BL/6J female mice by exposure to cigarette smoke of 4 to 6 cigarettes over an eleven-day period. PA401 at the dose of 400 μg/kg daily subcutaneous was compared to the dose of 40 μg/kg daily subcutaneous. Treatment was performed at t+3 h and effects on cell infiltrates on bronchoalveolar lavages were evaluated 24 h after last cigarette smoke exposure. Air exposed, Roflumilast (5 mg/kg oral) treated animals as well as animals treated with the CXCR2 antagonist SCH527123 (10 mg/kg twice a day oral-total daily dose 20 mg/kg) serve as controls.

[6] = system: C57BL/6J female mice intranasal instilled with LPS; assay: LPS-induced acute lung inflammation, intranasal LPS instillation (Example 1)
Description: To assess potential of PA401 as anti-inflammatory in models of acute lung neutrophilia, a dose-response study with subcutaneous administration of PA401 at doses of 4, 40, 200 and 400 μg/Kg in C57BL/6J female mice intranasal instilled with LPS (0.3 μg/mouse, serotype […]) was performed. Sham instilled (saline) and Dexamethasone 3 mg/kg s.c. (administered at t=−1 h before LPS instillation) treated animals were used as controls. Bronchoalveolar lavage (BAL) was performed 4 h post LPS instillation and total cell count on BAL samples, as well as differential cell count on BAL cytospin were measured.

[7] = 400 μg/kg s.c., all treatment frequencies (b.i.d., q.d., q.o.d.)
[8] = 400 μg/kg s.c., b.i.d. and q.d.
[9] = i.t. 100, 40, 10 and 4 μg/kg, 1 h before or 1 h after LPS, BAL 8 h post LPS
[10] = s.c. 4-400 μg/Kg, BAL cytospin 4 h post LPS

B1: PA401: del6F17KF21KE70KN71K IL-8 mutant; modified IL-8 with increased GAG binding affinity and down-regulated GPCR activity (protein, UniProt P10145 23-99, looked up, variant del1-6 F17K F21K E70K N71K)
Interleukin-8: AVLPRCQCIKTYSKPKHPKKIKELRVIESGPHCANTEIIVKLSDGRELCLDPKENWVQRVVEKFLKRAKKS
- cell subtypes (neutrophil, macrophage, epithelial cells, lymphocyte) in BAL at the other two doses ([1]; 4 and 40 μg/kg s.c.): Significant effect on most of these cell subtypes
- total cell infiltrates in BAL ([1]; 40 and 400 μg/kg s.c.): Highly significant effect
- inhibitory effect compared with Roflumilast 5 mg/kg ([1]; PA401 400 μg/kg s.c., Roflumilast 5 mg/kg oral): comparable of that obtained with Roflumilast 5 mg/kg
- epithelial cells numbers in BAL ([1]; highest dose (400 μg/kg s.c.)): significantly reduced
- lymphocyte numbers in BAL ([1]; highest dose (400 μg/kg s.c.)): significantly reduced
- macrophage numbers in BAL ([1]; highest dose (400 μg/kg s.c.)): significantly reduced
- neutrophil numbers in BAL ([1]; highest dose (400 μg/kg s.c.)): significantly reduced
- cigarette smoke induced increase in total cell number recovered in the BAL ([1]; s.c. 4, 40 and 400 μg/kg at +30 min and +6 h, BAL 24 h after last exposure): dose dependently inhibited
- total cell infiltrates in BAL ([2]; 400 μg/kg s.c. twice a day, daily and every other day, 11-day smoke): Significant effect
- epithelial cells numbers in BAL [2, 7]: significantly reduced
- neutrophil numbers in BAL [2, 7]: significantly reduced
- lymphocyte numbers in BAL [2, 8]: significant reduction
- macrophage numbers in BAL [2, 8]: significant reduction
- activity on mixed cell infiltration, twice a day vs once a day ([2]; 400 μg/kg subcutaneously, 11-day repeated exposure): comparable activity
- inhibitory effect compared with Roflumilast 5 mg/kg ([2]; PA401 400 μg/kg s.c. twice and once a day, Roflumilast 5 mg/kg oral): comparable of that obtained with Roflumilast 5 mg/kg
- neutrophil number in BAL [3, 9]: neutrophil number reduction
- total cells in BAL [3, 9]: significant dose dependent reduction
- activity on BAL cell counts at single doses ([3]; i.t. doses of 100, 40 and 10 μg/kg): significantly active
- improved activity of therapeutic treatment (t=+1 h) compared to prophylactic treatment (-1 h) ([3]; i.t., BAL 8 h post LPS): about 10%
- number of total cells in the BAL ([4]; 4, 40 and 400 μg/kg s.c. or i.v. at t=-5 and t=+3 h from LPS, BAL at t=8 h): highly significant reduction
- neutrophils count in the BAL ([4]; 4, 40 and 400 μg/kg s.c. or i.v., BAL at t=8 h): reduction
- inhibitory effect compared with intra tracheal dexamethasone ([4]; PA401 i.v., Dexamethasone 20 μg/mouse i.t. at t=-1 h): reaching the same inhibitory effects of intra tracheal administration of dexamethasone
- activity by route of administration (intravenous vs subcutaneous) ([4]; i.v. vs s.c., BAL at t=8 h): more significant when administered by intravenous than by subcutaneous route
- epithelial cells numbers in BAL ([5]; 400 and 40 μg/kg daily s.c.): significant reduction
- lymphocyte numbers in BAL ([5]; 400 and 40 μg/kg daily s.c.): significant reduction
- macrophage numbers in BAL ([5]; 400 and 40 μg/kg daily s.c.): significant reduction
- neutrophil numbers in BAL ([5]; 400 and 40 μg/kg daily s.c.): significant reduction
- total cell infiltrates in BAL ([5]; 400 and 40 μg/kg daily s.c., 11-day smoke): Significant effect
- inhibitory effect compared with Roflumilast and CXCR2 antagonist SCH527123 ([5]; PA401 400 μg/kg daily s.c., Roflumilast 5 mg/kg oral, SCH527123 10 mg/kg twice a day oral): comparable of that obtained with Roflumilast 5 mg/kg and the CXCR2 antagonist SCH527123
- inhibition of cell infiltration in the BAL compared with Dexamethasone 3 mg/kg ([6]; PA401 200 and 400 μg/kg s.c., Dexamethasone 3 mg/kg s.c.): comparable to that obtained with the treatment with a high dose of Dexamethasone
- total number of cells infiltrated in lung as assessed in the BAL fluid ([6]; s.c. 4, 40, 200 and 400 μg/Kg, BAL 4 h post LPS instillation): dose-dependent reduction
- number of lymphocytes in BAL [6, 10]: significant reduction
- number of neutrophils in BAL [6, 10]: significant reduction
- lowest dose with significant effect on neutrophils and lymphocytes ([6]; s.c., BAL 4 h post LPS): 4 µg/kg
